# Measured values published in the supplement of paper PMC7877785.
# ± gives the uncertainty stated by the source.
# Assay: self-splicing fitness, log relative to wild type (ln ratio); higher = more splicing; Tetrahymena group I intron in knt gene, E. coli kanamycin selection, DiMSum; sequences stand for … in CUCUCU…GGAGGGAAAAGUUAUCAGGCAUGCACCUGGUAGCUAGUCUUUAAACCAAUAGAUUGCAUCGGUUUAAAAGGCAAGACCGUCAAAUUGCGGGAAAGGGGUCAACAGCCGUUCAGUACCAAGUCUCAGGGGAAACUUUGAGAUGGCCUUGCAAAGGGUAUGGUAAUAAGCUGACGGACAUGGUCCUAACCACGCAGCCAAGUCCUAAGUCAACAGAUCUUCUGUUGAUAUGGAUGCAGUUCACAGACUAAAUGUCGGUCGGGGAAGAUGUAUUCUUCUCAUAAGAUAUAGUCGGACCUCUCCUUAAUGGGAGCUAGCGGAUGAAGUGAUGCAACACUGGAGCCGCUGGGAACUAAUUUGUAUGCGAAAGUAUAUUGAUUAGUUUUGGAGUACUCGUGGUCG
# How it was run: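 Library with all eight P1ex-region intron nucleotides randomised, intron inside the knt kanamycin-resistance gene on pET-22b(+), in E. coli BL21(DE3). Cells grew overnight at 37°C or 30°C on LB agar with or without 25 μg/mL kanamycin (plus 100 μg/mL carbenicillin, 50 μM IPTG, 0.2% rhamnose), in six replicate transformations. Pooled colonies were amplicon-sequenced on Illumina HiSeq 2500. DiMSum fitness is the error-weighted combination of wild-type-normalised replicate fold changes, kanamycin versus none.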
Sequence,self-splicing fitness (ln) (30 °C),self-splicing fitness (ln) (37 °C)
AUUUAGCAAUAUUACGGGCA,-1.56 ± 0.19,-0.452 ± 0.26
AUUUAGCAAUAUUACGGGCU,-2.71 ± 0.19,-0.78 ± 0.16
AUUUAGCAAUAUUACGGGUG,-3.24 ± 0.14,-1.57 ± 0.14
AUUUAGCAAUAUUACGGUGA,-1.17 ± 0.27,-1.7 ± 0.19
AUUUAGCAAUAUUACGUAUU,-3 ± 0.16,-1.47 ± 0.19
AUUUAGCAAUAUUACGUCAG,-3.7 ± 0.28,-0.451 ± 0.2
AUUUAGCAAUAUUACGUCGA,-2.64 ± 0.29,-0.501 ± 0.19
AUUUAGCAAUAUUACGUCUC,-3.59 ± 0.37,-2.18 ± 0.3
AUUUAGCAAUAUUACGUGCG,-1.82 ± 0.091,-0.316 ± 0.12
AUUUAGCAAUAUUACGUGGC,-3.57 ± 0.43,-1.69 ± 0.32
AUUUAGCAAUAUUACGUGUG,-2.36 ± 0.11,-1.44 ± 0.11
AUUUAGCAAUAUUACGUUCG,-1.39 ± 0.11,-0.0499 ± 0.13
AUUUAGCAAUAUUACGUUCU,-0.544 ± 0.085,-0.0441 ± 0.12
CAAAAGCAAUAUUACGAACA,-1.95 ± 0.14,-0.613 ± 0.13
CAAAAGCAAUAUUACGAGGU,-3.46 ± 0.15,-2.91 ± 0.21
CAAAAGCAAUAUUACGAUCC,-2.58 ± 0.22,-1.26 ± 0.24
CAAAAGCAAUAUUACGCAUU,-3.45 ± 0.18,-3.29 ± 0.23
CAAAAGCAAUAUUACGCGAC,-3.52 ± 0.34,-4.08 ± 0.42
CAAAAGCAAUAUUACGCGUC,-3.72 ± 0.24,-1.86 ± 0.18
CAAAAGCAAUAUUACGGAAG,-1.23 ± 0.049,-0.438 ± 0.071
CAAAAGCAAUAUUACGGAGG,-0.939 ± 0.096,-0.844 ± 0.13
CAAAAGCAAUAUUACGGCCG,0.257 ± 0.11,0.574 ± 0.16
CAAAAGCAAUAUUACGGGAG,-2.05 ± 0.074,-0.972 ± 0.079
CAAAAGCAAUAUUACGGGGA,-3.26 ± 0.15,-2.36 ± 0.15

Sequence,self-splicing fitness (ln) (30 °C),self-splicing fitness (ln) (37 °C)
CAAAAGCAAUAUUACGUCAC,-3.63 ± 0.28,-2.06 ± 0.2
CAAAAGCAAUAUUACGUGGC,-3.26 ± 0.13,-2.6 ± 0.2
CAAAAGCAAUAUUACGUGGG,-3.26 ± 0.12,-2.6 ± 0.12
CAAAAGCAAUAUUACGUUCC,-2.34 ± 0.33,-2.17 ± 0.36
CAACAGCAAUAUUACGAAAU,-2.7 ± 0.12,-2.47 ± 0.2
CAACAGCAAUAUUACGAACA,-2.43 ± 0.099,-1.17 ± 0.075
CAACAGCAAUAUUACGAACU,-3.29 ± 0.15,-0.988 ± 0.11
CAACAGCAAUAUUACGAAGA,-2.55 ± 0.17,-2.35 ± 0.17
CAACAGCAAUAUUACGAAUU,-4.19 ± 0.26,-1.84 ± 0.12
CAACAGCAAUAUUACGACUC,-1.74 ± 0.11,-0.579 ± 0.12
CAACAGCAAUAUUACGAUAC,-3.29 ± 0.28,-2.91 ± 0.37
CAACAGCAAUAUUACGCGUA,-1.55 ± 0.093,-1.06 ± 0.088
CAACAGCAAUAUUACGCUAG,-3.53 ± 0.13,-2.6 ± 0.14
CAACAGCAAUAUUACGCUCU,-1.33 ± 0.079,-0.581 ± 0.1
CAACAGCAAUAUUACGGAGA,-3.07 ± 0.2,-1.82 ± 0.2
CAACAGCAAUAUUACGGCAU,-3.38 ± 0.12,-1.11 ± 0.09
CAACAGCAAUAUUACGGCCC,–,-2.06 ± 0.33
CAACAGCAAUAUUACGGCGG,-0.393 ± 0.056,0.0944 ± 0.082
CAACAGCAAUAUUACGGGAC,-4.18 ± 0.17,-2.99 ± 0.16
CAACAGCAAUAUUACGGUCG,-0.273 ± 0.041,0.0819 ± 0.056
CAACAGCAAUAUUACGUAUA,-2.76 ± 0.12,-1.55 ± 0.11
CAACAGCAAUAUUACGUCAG,-0.334 ± 0.053,-0.55 ± 0.066
CAACAGCAAUAUUACGUCGU,-3.65 ± 0.12,-2.16 ± 0.11
CAACAGCAAUAUUACGUGAA,-1.36 ± 0.056,-1.62 ± 0.1

Sequence,self-splicing fitness (ln) (30 °C),self-splicing fitness (ln) (37 °C)
CAACAGCAAUAUUACGUGCC,-3.31 ± 0.2,-1.59 ± 0.15
CAACAGCAAUAUUACGUGGU,-4.16 ± 0.12,-2.01 ± 0.096
CAAGAGCAAUAUUACGACUC,-2.72 ± 0.24,-1.84 ± 0.27
CAAGAGCAAUAUUACGACUG,-1.57 ± 0.12,-1.19 ± 0.19
CAAGAGCAAUAUUACGAGAU,-3.29 ± 0.29,-2.8 ± 0.28
CAAGAGCAAUAUUACGAGGU,-4.09 ± 0.24,-2.71 ± 0.23
CAAGAGCAAUAUUACGAGUU,-2.81 ± 0.13,-2.82 ± 0.18
CAAGAGCAAUAUUACGAUCU,–,-1.79 ± 0.31
CAAGAGCAAUAUUACGCACU,-3.06 ± 0.33,–
CAAGAGCAAUAUUACGCCAU,-3.2 ± 0.23,-2.02 ± 0.28
CAAGAGCAAUAUUACGCGAC,-3.73 ± 0.23,-1.93 ± 0.13
CAAGAGCAAUAUUACGCGGC,-3.74 ± 0.31,-3.52 ± 0.28
CAAGAGCAAUAUUACGCUAA,-3.93 ± 0.27,-1.52 ± 0.21
CAAGAGCAAUAUUACGGACG,-0.541 ± 0.074,0.217 ± 0.093
CAAGAGCAAUAUUACGGCAA,-3.01 ± 0.29,-3.03 ± 0.38
CAAGAGCAAUAUUACGUAAU,-2.63 ± 0.23,-2.7 ± 0.32
CAAGAGCAAUAUUACGUACU,-3.74 ± 0.21,-1.92 ± 0.2
CAAGAGCAAUAUUACGUAUU,-3.55 ± 0.23,-1.83 ± 0.19
CAAGAGCAAUAUUACGUUGA,-3.98 ± 0.36,-2.94 ± 0.21
CAAGAGCAAUAUUACGUUUA,-2.84 ± 0.26,-1.61 ± 0.23
CAAGAGCAAUAUUACGUUUC,-3.38 ± 0.24,-2.01 ± 0.26
CAAUAGCAAUAUUACGAGGC,-3.6 ± 0.33,-1.44 ± 0.31
CAAUAGCAAUAUUACGAUAU,-4.72 ± 0.34,-2.59 ± 0.22
CAAUAGCAAUAUUACGAUUU,-2.3 ± 0.091,-0.775 ± 0.084

Sequence,self-splicing fitness (ln) (30 °C),self-splicing fitness (ln) (37 °C)
CAAUAGCAAUAUUACGCAAG,-1.19 ± 0.1,-0.905 ± 0.14
CAAUAGCAAUAUUACGCCCA,-1.6 ± 0.41,–
CAAUAGCAAUAUUACGCGCC,–,-1.04 ± 0.44
CAAUAGCAAUAUUACGCUGA,-3.11 ± 0.22,-1.85 ± 0.16
CAAUAGCAAUAUUACGCUGG,-1.32 ± 0.13,-0.734 ± 0.14
CAAUAGCAAUAUUACGGACA,-2.44 ± 0.16,-1.5 ± 0.15
CAAUAGCAAUAUUACGGCAA,-3.51 ± 0.38,-1.11 ± 0.22
CAAUAGCAAUAUUACGGCCA,-3.08 ± 0.3,-1.49 ± 0.32
CAAUAGCAAUAUUACGGGAU,-3.36 ± 0.31,-2.57 ± 0.35
CAAUAGCAAUAUUACGGUUG,-2.6 ± 0.12,-1.67 ± 0.12
CAAUAGCAAUAUUACGGUUU,-2.88 ± 0.13,-1.88 ± 0.15
CAAUAGCAAUAUUACGUAAC,-3.94 ± 0.35,-3.27 ± 0.43
CAAUAGCAAUAUUACGUAUC,-3.48 ± 0.15,-2.73 ± 0.18
CAAUAGCAAUAUUACGUGAG,-0.424 ± 0.076,0.678 ± 0.11
CAAUAGCAAUAUUACGUGUG,-1.72 ± 0.053,-0.748 ± 0.063
CAAUAGCAAUAUUACGUUCC,-2.6 ± 0.26,-2.13 ± 0.35
CAAUAGCAAUAUUACGUUUG,-2.52 ± 0.11,-1.52 ± 0.11
CAAUAGCAAUAUUACGUUUU,-5.04 ± 0.25,-2.5 ± 0.13
CACAAGCAAUAUUACGAACU,-3.64 ± 0.19,-2.37 ± 0.17
CACAAGCAAUAUUACGAAGC,-4.44 ± 0.28,-1.87 ± 0.19
CACAAGCAAUAUUACGACUA,-1.02 ± 0.089,-1.21 ± 0.074
CACAAGCAAUAUUACGAGGA,-3.18 ± 0.25,-2.59 ± 0.19
CACAAGCAAUAUUACGAUUG,-2.41 ± 0.064,-1.15 ± 0.075
CACAAGCAAUAUUACGCAAC,-3.27 ± 0.26,-2.27 ± 0.32
